According to patent US20250361284A1, “TRANSPOSASE FUSION PROTEINS FOR USE IN CELL AND GENE THERAPY” (JULIUS-MAXIMILIANS-UNIVERSITÄT WÜRZBURG, priority 2022, published 2025):

Tests used:
Assay type in all cases: cell-based, human
[1] = test system: HeLa cells; test: Transposition assay (G-418-resistant colonies) in HeLa cells; conditions: presence of TMP
Text: (2D) Transposition assay for evaluating the activity of dd-SB100X fusion-transposase. HeLa cells were transfected with neomycin-marked transposon plasmid and construct expressing wild type SB transposase (SB100X) or fusion-transposase (dd-SB100X), and selected for transposition events by antibiotic selection with G-418. Data representing the number of G-418-resistant colonies are shown on the right.
An transposon donor vector with neomycin resistance gene was generated de novo in house using Gibson assembly. In order to test the activity (in terms of integration capability) of the fusion-transposase (dd-SB100X) transposition assay was performed in HeLa cells as per the published protocol (Ivics et al., 1997). Briefly, ˜150,000 HeLa cells were seeded into each well of a 6-well plate a day before transfection. […] After 10 days of selection, cells were washed with PBS, fixed with tissue culture fixing solution, stained with methylene blue and counted.
We next examined the activity of the fusion-transposase (dd-SB100X) by standard transposition assay wherein we transfected HeLa cells with a SB transposon donor plasmid encoding a neomycin resistance gene, together with plasmid encoding SB100X as a positive control, or the fusion-transposase protein. […] After 10 days, colonies were fixed, stained and counted to determine the integration events achieved under each of the experimental conditions.

[2] = test system: CD4+ T cells; test: CAR gene transfer (EGFRt flow cytometry) in CD4+ T cells, dd-SB100X vs wild type SB100X plasmid; conditions: day 7
Description: (4A) CAR gene transfer in CD4+ T cells using dd-SB100X fusion-transposase vs. wild type SB100X transposase. CD3/CD28 activated CD4+ T cells were nucleofected with CD19-CAR_EGFRt SB transposon minicircle DNA and plasmid encoding either the fusion-transposase (pdd-SB100X/dd-SB100X) or the wild type SB transposase (pSB100X/SB100X). At 7 days post-nucleofection, flow cytometric analysis was performed to determine the percentage of T cells that express the EGFRt reporter. Top panel: Dot plots show EGFRt expression on day 7 post-nucleofection.
(§1) Anonymous healthy donor blood samples were received upon written consent to participate in research protocols approved by the Institutional Review Board of the Universitätsklinikum Würzburg (UKW). Blood samples were processed for T cells isolation as published earlier (Querques et al., 2019). Briefly, Peripheral blood mononuclear cells (PBMCs) were isolated by density centrifugation with Biocoll separating solution (Biochrom). Both CD4+ and CD8+ T cells were sorted by negative isolation approach using microbeads and magnetic associated cell sorting (MACS, Miltenyi) methods as described by the manufacturer. The isolated CD4+ and CD8+ T cells were cultured in T cell medium (RPMI-1640 with 10% (vol/vol) human serum, 2 mM L-glutamine, 100 U ml-1 penicillin-streptomycin) containing IL-2 (50 units per mL) and activated by anti-CD3/CD28 bead stimulation (Thermo Fisher). Two days post-activation, approximately 2 million T cells were nucleofected with vectors (1 μg of CD19 CAR (EGFRt)-encoding transposon as plasmid or minicircle DNA; 1 μg of mRNA encoding SB transposase) or 10 μg of hsSB protein (Querques et al., 2019) using a 4D Nucleofector (Lonza) as per the manufacturer's instructions. […]
We next investigated if the dd-SB100X fusion-transposase retained transposition activity in primary human T cells. […] We observed differences in CD19-CAR_EGFRt expression, as evidenced by mean fluorescence intensity (MFI) of EGFRt by flow cytometry.

[3] = test system: CD19 CAR T cells; test: Transposon (CAR) copy number analysis by ddPCR in CAR T cells; conditions: plasmid-encoded transposase, EGFRt-enriched CAR T cells
Description: (4C) CAR Copy number analysis of CD8+ CD19 CAR T cells engineered with dd-SB100X fusion transposase. The number of integrations per genome was analyzed by ddPCR. Data shown are mean values of three biological replicates measured in technical triplicates and shown ±S.E.M. The data was analyzed using unpaired, two-tailed Student's T-test and differences were statistically significant (*, p=0.0274).
(6D) Transposon copy number analysis in EGFRt+ CD8+ T cells that were nucleofected with CD19-CAR_EGFRt SB transposon minicircle DNA and mRNA encoding either the wild type SB transposase (SB100X) or the fusion-transposase (dd-SB100X) assessed by digital droplet PCR.
Genomic DNA (gDNA) of CAR-positive T cells was isolated using dPureLink gDNA Mini Kit (Invitrogen, California, USA). Droplet digital PCR (ddPCR) was set up and analyzed in technical triplicates. Each ddPCR reaction contained ready-to-use ddPCR Supermix for Probes No dUTP (Bio-Rad, California, USA), 20 ng of the respective fragmented gDNA, 0.2 μL of CviQl (10 000 U/mL) (NEB, Frankfurt am Main, Germany), 0.1 μL of Dpnl (20,000 U/mL) (NEB, Frankfurt am Main, Germany), 200 nM of each respective ddPCR FAM/HEX probe, and 600 nM of each respective forward and reverse primer in a final volume of 25 μL. CviQl was used to fragment the gDNA to ensure single-copies per droplet. DPNI was used to specifically digest non-integrated vectors. […]

[4] = test system: K562/CD19 target cells; test: Antigen specific proliferation (CFSE dye dilution) of CD19 CAR T cells; conditions: 72 hours, stimulation with K562/CD19 target cells
Description: (4E) Antigen specific proliferation by CD4+ CD19 CAR T cells engineered with dd-SB100X fusion transposase. Proliferation of CD4+ CAR T cells was examined by CFSE dye dilution after 72 hours of co-culture with K562/CD19 or K562 target cells. For analysis, triplicate wells were pooled and the proliferation of viable 7-AAD-negative T cells was analyzed. The division index (average number of cell divisions) was calculated using FlowJo software. Data shown are mean values ±s.d. of one representative experiment.
as §1, with “Fisher).” for “Fisher). Two days post-activation, approximately 2 million T cells were nucleofected with vectors (1 μg of CD19 CAR (EGFRt)-encoding transposon as plasmid or minicircle DNA; 1 μg of mRNA encoding SB transposase) or 10 μg of hsSB protein (Querques et al., 2019) using a 4D Nucleofector (Lonza) as per the manufacturer's instructions.”

[5] = test system: CD8+ T cells; test: Gene transfer in CD8+ T cells with TMP priming before nucleofection; conditions: day 7
Description: CD8+ T cells were isolated from healthy donor PBMC and activated with CD3/CD28 bead stimulation. […] Cells were nucleofected with CD19-CAR_EGFRt SB transposon minicircle DNA and plasmid encoding either the wild type SB transposase (SB100X) or the fusion-transposase (dd-SB100X). […] At 7 days post-nucleofection, flow cytometric analysis was performed to determine the percentage of T cells that expresses the EGFRt reporter. Top panel: Dot plots show EGFRt expression on day 7 post-nucleofection.
as §1, with “instructions. CD19 CAR-modified (i.e., EGFRt+) T cells were enriched using biotin-conjugated anti-EGFR monoclonal antibody and anti-biotin beads (Miltenyi) as per the manufacturer's instructions.” for “instructions.”

B1: dd-SB100X: ecDHFR destabilizing domain fused via linker to N-terminus of SB100X transposase; SEQ ID NO: 2 (protein)
chain: MISLIAALAVDYVIGMENAMPWNLPADLAWFKRNTLNKPVIMGRHTWESIGRPLPGRKNIILSSQPSTDDRVTWVKSVDEAIAACGDVPEIMVIGGGRVIEQFLPKAQKLYLTHIDAEVEGDTHFPDYEPDDWESVFSEFHDADAQNSHSYCFEILERKLGGGAPAVGGGPKMGKSKEISQDLRKRIVDLHKSGSSLGAISKRLAVPRSSVQTIVRKYKHHGTTQPSYRSGRRRVLSPRDERTLVRKVQINPRTTAKDLVKMLEETGTKVSISTVKRVLYRHNLKGHSARKKPLLQNRHKKARLRFATAHGDKDRTFWRNVLWSDETKIELFGHNDHRYVWRKKGEACKPKNTIPTVKHGGGSIMLWGCFAAGGTGALHKIDGIMDAVQYVDILKQHLKTSVRKLKLGRKWVFQHDNDPKHTSKVVAKWLKDNKVKVLEWPSQSPDLNPIENLWAELKKRVRARRPTNLTQLHQLCQEEWAKIHPNYCGKLVEGYPKRLTQVKQFKGNATKY
modifications: misc_feature 1..1539 ecDHFR-SB100X
[1]
  transposition activity: active and mediated transposition activity
  transposition activity compared to wild type SB100X: reduced transposition activity
[2]; cultured in absence of TMP after nucleofection
  gene transfer rate (EGFRt+ T cells): ~6.6%
[2]; dd-SB100X cultured in presence of TMP after nucleofection, SB100X wild type control
  gene transfer rate (EGFRt+ T cells): ~18%
[2]; presence of TMP
  MFI of EGFRt compared to wild type SB100X: lower MFI
[3]
  transposon copies per genome (average): 2.99 copies per genome
[4]
  proliferation (cell divisions): > 3 cell divisions
[5]
  MFI of EGFRt expression compared to wild type SB100X: lower MFI
[5]; not primed with TMP
  gene transfer (EGFRt+ T cells): ~26.1%
[5]; primed with TMP 1000 nM for 24 hours before nucleofection
  gene transfer (EGFRt+ T cells): ~29.7%
